Numbered stars: 1 amine (or outer) side, 2 acyl side, 3 side chain; on linkers, the order of the positions; unused ones are H or OH. Square brackets hold non-standard residues; d marks the D form. Primed or numbered codes have the meaning given here. Side chains are listed from the residue outwards. Ends that are not written are not given here. * marks the point of attachment. C20 diacid = O=C(O)CCCCCCCCCCCCCCCCCCC(=O)*; C18 diacid = O=C(O)CCCCCCCCCCCCCCCCC(=O)*; C16 diacid = O=C(O)CCCCCCCCCCCCCCC(=O)*; γGlu = O=C(O)[C@H](CCC(=O)[*:2])N[*:1]; Iva = CC[C@](C)(N)C(=O)O; PEG3′ = not defined here; AGlu = not defined here; Aib = CC(C)(N)C(=O)O
T1: human GLP-1R (Genebank Accession No. NM_002062) on hGLP-1R/CRE-luc/CHO-K1 cells (human), P43220
T1 chain: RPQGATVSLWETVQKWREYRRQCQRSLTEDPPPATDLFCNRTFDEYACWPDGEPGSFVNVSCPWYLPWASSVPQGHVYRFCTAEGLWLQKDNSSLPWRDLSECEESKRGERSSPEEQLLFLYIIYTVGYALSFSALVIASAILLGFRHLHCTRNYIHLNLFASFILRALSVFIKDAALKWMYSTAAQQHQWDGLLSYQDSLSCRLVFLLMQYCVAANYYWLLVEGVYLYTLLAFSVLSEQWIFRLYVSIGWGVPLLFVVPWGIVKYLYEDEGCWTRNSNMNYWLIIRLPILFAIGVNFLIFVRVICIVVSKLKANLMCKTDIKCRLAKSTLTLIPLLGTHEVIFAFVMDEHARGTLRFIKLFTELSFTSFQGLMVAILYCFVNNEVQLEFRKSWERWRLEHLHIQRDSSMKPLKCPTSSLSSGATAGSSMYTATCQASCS

T2: full-length human GLP-1R (GenBank NM_002062) with an N-terminal FLAG tag on HEK-293T cells (human), P43220
T2 chain: T1 chain

T3: full-length human GIPR (GenBank NM_000164) with an N-terminal FLAG tag on HEK-293T cells (human), P48546
T3 chain: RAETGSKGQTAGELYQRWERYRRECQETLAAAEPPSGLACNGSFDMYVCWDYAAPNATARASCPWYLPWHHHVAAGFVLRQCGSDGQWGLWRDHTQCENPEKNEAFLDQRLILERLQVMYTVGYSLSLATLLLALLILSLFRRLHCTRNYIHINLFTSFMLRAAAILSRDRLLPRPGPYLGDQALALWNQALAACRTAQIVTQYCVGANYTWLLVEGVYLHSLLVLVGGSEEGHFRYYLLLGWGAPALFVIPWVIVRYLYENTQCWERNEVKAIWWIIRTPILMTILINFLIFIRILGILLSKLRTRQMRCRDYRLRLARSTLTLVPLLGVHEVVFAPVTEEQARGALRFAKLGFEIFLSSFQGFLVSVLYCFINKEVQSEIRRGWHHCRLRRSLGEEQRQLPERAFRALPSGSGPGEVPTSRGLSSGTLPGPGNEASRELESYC

T4: human GIPR (Genebank Accession No. U39231) on hGIPR/CRE-LUC/CHO-K1 cells (human), P48546
T4 chain: T3 chain

B1: Compound No. 7 (peptide)
peptide: YXEGTVVSLYSIXLDKQAQXEFVKWLLKGGPSSGAPPPSX
modifications: Aib at 2, 13, 20; Lys40(Heda-Gly-Gly-Gly-Gly-); synthesized on Sieber amide resin
B2: Compound No. 60 (peptide)
peptide: YXEGTFISDYSIALDRXHQXNFVNWXLAQRPSSGAPPPSX
modifications: MeTyr (N-methyltyrosine) at 1; Aib at 2, 17, 20; Iva at 26; Lys40(Oda-GlyGlyGlyGlyGly); synthesized on Sieber amide resin
B3: Compound No. 23 (peptide)
peptide: Y[Aib]EGTFISDYSIALDR[Aib]HQ[Aib]NFVNW[Iva]LAQRPSSGAPPPSK([PEG3′-PEG3′-AGlu-C20 diacid])
modifications: ends and bridges not checked
B4: Compound No. 46 (peptide)
peptide: Y[Aib]EGTFISDYSIALDR[Aib]HQ[Aib]NFVNW[Iva]LAQRPSSGAPPPSK([PEG(2)-C16 diacid])
modifications: ends and bridges not checked
B5: Compound No. 21 (peptide)
peptide: Y[Aib]EGTFISDYSIALDR[Aib]HQ[Aib]NFVNW[Iva]LAQRPSSGAPPPSK([PEG3′-PEG3′-AGlu-C16 diacid])
modifications: ends and bridges not checked
B6: Compound No. 20 (peptide)
peptide: Y[Aib]EGTVVSLYSI[Aib]LDKQAQ[Aib]EFVKWLLAQKK([PEG(2)-Pal])
modifications: ends and bridges not checked
B7: Compound No. 22 (peptide)
peptide: Y[Aib]EGTFISDYSIALDR[Aib]HQ[Aib]NFVNW[Iva]LAQRPSSGAPPPSK([PEG3′-PEG3′-AGlu-C18 diacid])
modifications: ends and bridges not checked
B8: Compound No. 42 (peptide)
peptide: Y[Aib]EGTFISDYSIALDR[Aib]HQ[Aib]NFVNW[Iva]LAQRPSSGAPPPSK([PEG(2)-C18 diacid])
modifications: ends and bridges not checked
B9: Compound No. 38 (peptide)
peptide: Y[Aib]EGTFISDYSIALDR[Aib]HQ[Aib]NFVNW[Iva]LAQRPSSGAPPPSK([PEG(2)-C20 diacid])
modifications: ends and bridges not checked
B10: Compound No 935 (peptide)
peptide: Y[Aib]EGTFISDYSIALDR[Aib]HQ[Aib]NFVNW[Iva]LAQRPSSGAPPK([PEG3′-PEG3′-C20 diacid])SR
modifications: ends and bridges not checked
B11: Compound No 927 (peptide)
peptide: Y[Aib]EGTFISDYSIALDR[Aib]HQ[Aib]NFVNW[Iva]LAQRPSSGAPK([PEG3′-PEG3′-C16 diacid])PSR
modifications: ends and bridges not checked
B12: Compound No 933 (peptide)
peptide: Y[Aib]EGTFISDYSIALDR[Aib]HQ[Aib]NFVNW[Iva]LAQRPSSGAPPK([PEG3′-PEG3′-C16 diacid])SR
modifications: ends and bridges not checked
B13: Compound No 928 (peptide)
peptide: Y[Aib]EGTFISDYSIALDR[Aib]HQ[Aib]NFVNW[Iva]LAQRPSSGAPK([PEG3′-PEG3′-C18 diacid])PSR
modifications: ends and bridges not checked
B14: Compound No 934 (peptide)
peptide: Y[Aib]EGTFISDYSIALDR[Aib]HQ[Aib]NFVNW[Iva]LAQRPSSGAPPK([PEG3′-PEG3′-C18 diacid])SR
modifications: ends and bridges not checked
B15: Compound No 899 (peptide)
peptide: Y[Aib]EGTFISDYSIALDR[Aib]HQ[Aib]NFVNW[Iva]LAQRPSK([PEG3′-PEG3′-C18 diacid])GAPPPSR
modifications: ends and bridges not checked
B16: Compound No 940 (peptide)
peptide: Y[Aib]EGTFISDYSIALDR[Aib]HQ[Aib]NFVNW[Iva]LAQRPSSGAPPPK([PEG3′-PEG3′-C18 diacid])R
modifications: ends and bridges not checked
B17: Compound No 939 (peptide)
peptide: Y[Aib]EGTFISDYSIALDR[Aib]HQ[Aib]NFVNW[Iva]LAQRPSSGAPPPK([PEG3′-PEG3′-C16 diacid])R
modifications: ends and bridges not checked
B18: Compound No 942 (peptide)
peptide: Y[Aib]EGTFISDYSIALDR[Aib]HQ[Aib]NFVNW[Iva]LAQRGGGGSK([PEG3′-PEG3′-γGlu-C18 diacid])
modifications: ends and bridges not checked
B19: Compound No 900 (peptide)
peptide: Y[Aib]EGTFISDYSIALDR[Aib]HQ[Aib]NFVNW[Iva]LAQRPSK([PEG3′-PEG3′-C20 diacid])GAPPPSR
modifications: ends and bridges not checked
B20: Compound No 943 (peptide)
peptide: Y[Aib]EGTFISDYSIALDR[Aib]HQ[Aib]NFVNW[Iva]LAQRGGGGSGGGGSK([PEG3′-PEG3′-γGlu-C18 diacid])
modifications: ends and bridges not checked
B21: Compound No 941 (peptide)
peptide: Y[Aib]EGTFISDYSIALDR[Aib]HQ[Aib]NFVNW[Iva]LAQRPSSGAPPPK([PEG3′-PEG3′-C20 diacid])R
modifications: ends and bridges not checked
B22: Compound No 929 (peptide)
peptide: Y[Aib]EGTFISDYSIALDR[Aib]HQ[Aib]NFVNW[Iva]LAQRPSSGAPK([PEG3′-PEG3′-C20 diacid])PSR
modifications: ends and bridges not checked

Target: human GLP-1R (Genebank Accession No. NM_002062) on hGLP-1R/CRE-luc/CHO-K1 cells (human, UniProt P43220 24-463)
Assay: cell-based or functional assay

Row | Binder | hGLP-1R (Reporter gene assay)(EC50) [nM]
1 | B1 | > 1000
2 | B2 | > 1000

Target: T1, human GLP-1R (Genebank Accession No. …)
Assay: cell-based or functional assay

Row | Binder | hGLP-1R (Reporter gene assay)(EC50) [nM]
3 | B3 | > 1000
4 | B4 | > 1000
5 | B5 | > 1000
6 | B6 | > 1000
7 | B7 | > 1000
8 | B8 | > 1000
9 | B9 | > 1000

Target: T2, full-length human GLP-1R (GenBank …)
Assay: cell-based or functional assay

Row | Binder | GLP EC50 [nM]
10 | B10 | 1000
11 | B11 | 436
12 | B12 | 97.7
13 | B13 | 135
14 | B14 | 436
15 | B15 | 144
16 | B16 | 525
17 | B17 | 1000
18 | B18 | 4.3
19 | B19 | 219
20 | B20 | 1.2
21 | B21 | 1000
22 | B22 | 46.8

Target: T3, full-length human GIPR (GenBank …)
Assay: cell-based or functional assay

Row | Binder | GIP EC50(pM)
23 | B10 | 1
24 | B11 | 1.3
25 | B12 | 0.6
26 | B13 | 1.6
27 | B14 | 0.6
28 | B15 | 0.7
29 | B16 | 0.7
30 | B17 | 0.6
31 | B18 | 1.4
32 | B19 | 0.7
33 | B20 | 1.5
34 | B21 | 0.4
35 | B22 | 1.8

Target: T4, human GIPR (Genebank Accession No. …)
Assay: cell-based or functional assay

Row | Binder | hGIPR (polyclonal) Reporter (EC50) [nM]
36 | B3 | 0.1
37 | B4 | 0.01
38 | B5 | 0.01
39 | B6 | 0.1
40 | B7 | 0.05
41 | B8 | 0.03
42 | B9 | 0.05

Source: patent US20220135638A1 (Takeda / Millennium, published 2022)
